Measurements from patent publication US20220332827A1 (WUXI BIOLOGICS IRELAND, published 2022).

T1: human PD-L2 on the cell surface (human, UniProt Q9BQ51 20-273)
T1 construct: whole, on cells; also called cell surface human PD-L2
T1 sequence (looked up): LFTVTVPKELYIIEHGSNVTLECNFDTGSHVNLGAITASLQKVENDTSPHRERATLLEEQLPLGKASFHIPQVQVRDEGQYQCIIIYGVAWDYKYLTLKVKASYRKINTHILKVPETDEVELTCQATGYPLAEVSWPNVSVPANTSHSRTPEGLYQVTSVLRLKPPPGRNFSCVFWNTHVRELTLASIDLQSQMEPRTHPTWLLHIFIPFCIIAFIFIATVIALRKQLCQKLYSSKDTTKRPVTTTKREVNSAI


Experiments:
[1] = target: cynomolgus monkey PD-L1 protein (soluble) (cynomolgus monkey) (UniProt G7PSE7); test: ELISA, scFv; set-up: unit not given here
Sequence of cynomolgus monkey PD-L1 protein (soluble) (cynomolgus monkey) (G7PSE7 entry or part of it limits assumed): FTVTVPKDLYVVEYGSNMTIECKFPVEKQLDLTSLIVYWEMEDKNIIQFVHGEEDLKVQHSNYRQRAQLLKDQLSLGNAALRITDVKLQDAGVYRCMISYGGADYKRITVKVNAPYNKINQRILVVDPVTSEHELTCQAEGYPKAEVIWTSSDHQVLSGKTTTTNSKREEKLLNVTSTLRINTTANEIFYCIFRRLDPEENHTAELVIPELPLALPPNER

[2] = target: human PD-L1 protein (soluble, ELISA antigen and SPR analyte) (human) (UniProt Q9NZQ7); test: ELISA, scFv; set-up: unit not given here
Sequence of human PD-L1 protein (soluble, ELISA antigen and SPR analyte) (human) (Q9NZQ7 19-238 limits assumed): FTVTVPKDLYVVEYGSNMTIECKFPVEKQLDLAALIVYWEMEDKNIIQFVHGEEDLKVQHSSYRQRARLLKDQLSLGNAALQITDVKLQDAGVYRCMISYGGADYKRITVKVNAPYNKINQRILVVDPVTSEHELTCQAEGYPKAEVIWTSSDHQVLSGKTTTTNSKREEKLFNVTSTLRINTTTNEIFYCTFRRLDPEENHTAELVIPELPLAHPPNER

[3] = target: mouse PD-L1 protein (soluble) (mouse) (UniProt Q9EP73); test: ELISA, scFv; set-up: unit not given here
Sequence of mouse PD-L1 protein (soluble) (mouse) (Q9EP73 19-238 limits assumed): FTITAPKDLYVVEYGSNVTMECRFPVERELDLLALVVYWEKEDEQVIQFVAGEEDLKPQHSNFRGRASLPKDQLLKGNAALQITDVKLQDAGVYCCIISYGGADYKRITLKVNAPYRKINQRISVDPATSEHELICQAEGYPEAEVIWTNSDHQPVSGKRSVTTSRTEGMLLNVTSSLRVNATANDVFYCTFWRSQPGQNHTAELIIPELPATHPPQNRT

[4] = target: T2, mouse PD-L1 on the cell surface (mouse, UniProt Q9EP73 19-290); test: FACS on cells expressing mouse PD-L1, goat anti-human IgG Fc FITC
T2 construct: whole, on cells; also called cell surface mouse PD-L1
T2 sequence (Q9EP73 19-290): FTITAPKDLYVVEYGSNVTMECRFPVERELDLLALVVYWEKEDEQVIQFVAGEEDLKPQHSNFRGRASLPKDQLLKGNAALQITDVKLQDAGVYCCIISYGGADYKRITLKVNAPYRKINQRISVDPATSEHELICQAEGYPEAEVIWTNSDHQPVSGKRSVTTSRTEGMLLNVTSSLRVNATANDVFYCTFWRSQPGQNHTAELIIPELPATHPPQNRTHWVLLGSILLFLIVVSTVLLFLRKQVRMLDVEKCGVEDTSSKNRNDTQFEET
Experimental: (§1) Cross-reactivity was measured by FACS. […] Testing antibodies were diluted in wash buffer (1><PBS/1% BSA) and incubated with cells at 4° C. for 1 hour. After washing, the secondary antibody goat anti-human IgG Fc FITC (Jackson ImmunoResearch Lab) was added and incubated at 4° C. in the dark for 1 hour. The cells were then washed once and resuspended in 1><PBS/1% BSA, and analyzed by flow cytometry (BD).

[5] = target: T3, cynomolgus PD-L1 on the cell surface (cynomolgus, UniProt G7PSE7 19-290); test: FACS on cells expressing cynomolgus PD-L1, goat anti-human IgG Fc FITC
T3 construct: also called cell surface cynomolgus PD-L1
T3 sequence (G7PSE7 entry or part of it limits assumed): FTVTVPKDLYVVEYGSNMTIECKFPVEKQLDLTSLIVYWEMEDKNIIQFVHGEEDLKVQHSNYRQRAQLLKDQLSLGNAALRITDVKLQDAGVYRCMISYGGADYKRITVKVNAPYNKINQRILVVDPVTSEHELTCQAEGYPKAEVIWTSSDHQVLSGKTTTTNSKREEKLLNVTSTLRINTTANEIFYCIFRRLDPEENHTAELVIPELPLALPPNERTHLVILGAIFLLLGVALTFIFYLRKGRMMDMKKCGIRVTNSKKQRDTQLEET
Experimental: as §1

[6] = target: T4, cynomolgus monkey PD-L1 protein (soluble) (cynomolgus monkey, UniProt G7PSE7 19-238); test: SPR, antibody captured on Protein A, PD-L1 as analyte
T4 construct: also called cyno PD-L1
T4 sequence (G7PSE7 entry or part of it limits assumed): as the sequence (Q9NZQ7 19-238 limits assumed) above, with A33T, A34S, S62N, R68Q, Q82R, F173L, T185A, T192I, H215L counted along it
Experimental: (§2) Antibodies were characterized for affinity and binding kinetics to PD-L1by SPR assay using ProteOn XPR36 (Bio-Rad). Protein A protein (Sigma) was immobilized to a GLM sensor chip (Bio-Rad) through amine coupling. Purified antibodies were flowed over the sensor chip and captured by the Protein A. The chip was rotated 90° and washed with running buffer (1 ><PBS/0.05% Tween20, Bio-Rad) until the baseline was stable. Five concentrations of human or cynomolgus monkey PD-L1and running buffer were flowed through the sensor chip at a flow rate of 100 μL/min for an association phase of 240s, followed by 600s dissociation. […] The chip was regenerated with pH 1.5 H₃PO₄ after each run. The association and dissociation curve was fit by 1:1 Langmuir binding model using ProteOn software.

[7] = target: T5, human PD-L1 protein (soluble, ELISA antigen and SPR analyte) (human, UniProt Q9NZQ7 19-238); test: as above
T5 construct: biotinylated in the capture ELISA; also called PD-L1 (human)
T5 sequence (Q9NZQ7 19-238 limits assumed): as the sequence (Q9NZQ7 19-238 limits assumed) above
Experimental: as §2

[8] = target: T6, human PD-L1 on the cell surface (CHO-K1 cells expressing human PD-L1) (human, UniProt Q9NZQ7 19-290); test: FACS epitope binning: antibody mixed with biotinylated WBP315BMK1 on CHO-K1 cells expressing human PD-L1, Streptavidin-PE
T6 construct: the positions are those of the human PD-L1 alanine scan; also called cell surface human PD-L1; B7-H1
T6 sequence (Q9NZQ7 19-290 limits assumed): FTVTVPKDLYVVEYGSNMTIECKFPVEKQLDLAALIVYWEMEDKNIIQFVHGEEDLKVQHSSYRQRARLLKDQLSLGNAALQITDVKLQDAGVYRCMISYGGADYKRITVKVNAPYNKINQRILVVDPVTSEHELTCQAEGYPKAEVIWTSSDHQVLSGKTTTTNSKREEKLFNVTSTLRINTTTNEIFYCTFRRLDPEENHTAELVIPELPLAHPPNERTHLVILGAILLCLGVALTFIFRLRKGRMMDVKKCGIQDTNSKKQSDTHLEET
Experimental: (§3) CHO-K 1 cells expressing human PD-L1on the cell surface were incubated with the mixture of biotinylated benchmark antibodies and testing antibodies (serially diluted in wash buffer) at 4° C. for 1 hour. The cells were washed and the second antibody Streptavidin-PE were added and incubated for 30 min at 4° C. The cells were then washed once and resuspended in 1><PBS/1% BSA, and analyzed by flow cytometery.

[9] = target: T1, human PD-L2 on the cell surface; test: FACS on PD-L2+ CHO-K1 cells, goat anti-human IgG Fc FITC (cross-family test)
Experimental: Testing antibodies were diluted in wash buffer (1><PBS/1% BSA) and incubated with cells at 4° C. for 1 hour. After washing, the secondary antibody goat anti-human IgG Fc FITC (Jackson ImmunoResearch Lab) was added and incubated at 4° C. in the dark for 1 hour. The cells were then washed once and resuspended in 1><PBS/1% BSA, and analyzed by flow cytometry (BD).

[10] = target: T6, human PD-L1 on the cell surface (CHO-K1 …); test: FACS competition: antibody against mouse Fc fusion-human PD-1 binding to cells expressing human PD-L1
[11] = target: T2, mouse PD-L1 on the cell surface; test: FACS competition: antibody against mouse Fc fusion-mouse PD-1 binding to cells expressing mouse PD-L1
[12] = target: T6, human PD-L1 on the cell surface (CHO-K1 …); test: FACS epitope binning: antibody mixed with biotinylated WBP315BMK6 on CHO-K1 cells expressing human PD-L1, Streptavidin-PE
Experimental: as §3

[13] = target: T6, human PD-L1 on the cell surface (CHO-K1 …); test: FACS on cells expressing human PD-L1, goat anti-human IgG Fc FITC
Experimental: as §1

[14] = target: T5, human PD-L1 protein (soluble, ELISA …); test: SPR

Bmax [1] | Bmax [2] | Bmax [3] | EC50 (read off the curve) [4] [nM] | EC50 (read off the curve) [5] [nM] | Kd [6] [nM] | koff [6] [s⁻¹] | kon [6] [M⁻¹ s⁻¹] | Kd [7] [nM] | koff [7] [s⁻¹] | kon [7] [M⁻¹ s⁻¹] | IC50 (read off the curve) [8] [nM] | IC50 (read off the curve) [10] [nM] | IC50 (read off the curve) [11] [nM] | IC50 (read off the curve) [12] [nM] | EC50 (read off the curve) [13] [nM] | koff [14] [s⁻¹] | Binder | binding result [9]
2.4 | 3.22 | 3.46 |  |  |  |  |  |  |  |  |  |  |  |  |  |  | W3152-r11.135.5-zAb17-m6 (scFv) (scFv, part only; not given: linker, domain order, tag, V domains shown, not shown: another chain or arm of the molecule; small tags and cut ends) VH: QVQLQESGPGLVKPSETLSLTCTVSGFSLTENSVSWIRQPPGKGLEWIGAVWSSGSTDYNSALKSRVTISRDTSKNQFSLKLSSVTAADTAVYYCTRSTYSNDFYYYFDYWGQGTMVTVSS VL: SYELTQPPSVSVSPGQTASITCSGSELPKRYAYWYQQKPGQSIVRVIYKDSERPSGISERFSGSSSGNTATLTISGTQAMDEADYYCSSTYGDRKLPIFGGGTKLTVL | 
 |  |  | ~2 | ~1 | 0.403 | 0.00101 | 2.52e+06 | 0.514 | 0.00145 | 2.81e+06 | ~0.6 | ~0.1 | ~2 | ~2 | ~0.2 | 0.00103 | W3152-r11.135.5-zAb17-m6-uIgG4L (antibody, V domains shown, also called W3152-r11.135.5-zAb17-m6-IgG4L) VH: QVQLQESGPGLVKPSETLSLTCTVSGFSLTENSVSWIRQPPGKGLEWIGAVWSSGSTDYNSALKSRVTISRDTSKNQFSLKLSSVTAADTAVYYCTRSTYSNDFYYYFDYWGQGTMVTVSS VL: SYELTQPPSVSVSPGQTASITCSGSELPKRYAYWYQQKPGQSIVRVIYKDSERPSGISERFSGSSSGNTATLTISGTQAMDEADYYCSSTYGDRKLPIFGGGTKLTVLG | no binding (tested: concentration not shown)
